How the values were obtained:
Experiment in all cases: split reporter
[1] = molecular target: Yn-fused MDM2, wild type (FLAG-tagged MDM2-Yn) (UniProt Q00987)
[2] = molecular target: M2-dAZ-Yn (Yn-fused MDM2 deleted of the AZ domain) (UniProt Q00987)
[3] = molecular target: M2-dIAZ-Yn (Yn-fused MDM2 deleted of the I1 and AZ domains) (UniProt Q00987)

Sequence of Yc-fused NS, wild type (Myc-tagged NS-Yc) (Q9BVP2 whole entry, the tested form may be a part): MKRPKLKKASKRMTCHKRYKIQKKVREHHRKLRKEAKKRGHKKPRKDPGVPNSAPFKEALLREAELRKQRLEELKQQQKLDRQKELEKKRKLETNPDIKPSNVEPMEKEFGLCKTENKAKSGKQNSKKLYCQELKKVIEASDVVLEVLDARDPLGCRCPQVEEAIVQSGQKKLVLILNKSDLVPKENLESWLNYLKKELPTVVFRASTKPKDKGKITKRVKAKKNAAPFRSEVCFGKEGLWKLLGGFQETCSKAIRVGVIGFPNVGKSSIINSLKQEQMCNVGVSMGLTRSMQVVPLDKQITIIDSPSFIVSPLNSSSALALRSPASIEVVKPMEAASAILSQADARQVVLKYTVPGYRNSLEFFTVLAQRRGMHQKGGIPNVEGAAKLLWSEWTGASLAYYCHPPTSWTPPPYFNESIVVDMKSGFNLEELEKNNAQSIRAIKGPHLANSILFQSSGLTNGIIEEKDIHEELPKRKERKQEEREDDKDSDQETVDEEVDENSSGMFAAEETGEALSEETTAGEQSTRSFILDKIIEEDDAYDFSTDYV
Sequence of NS-GI-Yc (Yc-fused NS deleted of the BC and A domains) (Q9BVP2 116-464, stated change not applied): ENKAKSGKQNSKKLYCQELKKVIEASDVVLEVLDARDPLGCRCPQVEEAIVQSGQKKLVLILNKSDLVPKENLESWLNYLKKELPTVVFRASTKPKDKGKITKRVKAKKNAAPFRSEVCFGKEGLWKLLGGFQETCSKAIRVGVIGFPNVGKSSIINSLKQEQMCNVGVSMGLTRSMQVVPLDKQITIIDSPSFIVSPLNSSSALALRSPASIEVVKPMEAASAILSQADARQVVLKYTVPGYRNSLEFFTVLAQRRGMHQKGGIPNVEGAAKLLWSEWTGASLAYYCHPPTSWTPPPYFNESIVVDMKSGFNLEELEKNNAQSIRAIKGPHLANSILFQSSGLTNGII

| BiFC efficiency (percent YFP+ cells in the CFP+ population) [1] [%] | BiFC efficiency (percent YFP+ cells in the CFP+ population) [2] [%] | BiFC efficiency (percent YFP+ cells in the CFP+ population) [3] [%] | Substance |
| --- | --- | --- | --- |
| 27.2 |  |  | NS-GI-Yc (Yc-fused NS deleted of the BC and A domains) (from UniProt Q9BVP2 116-464) (domain or fragment) |
| 48.7 | 15 | 9.4 | Yc-fused NS, wild type (Myc-tagged NS-Yc) (from UniProt Q9BVP2 1-549) (natural protein) |

Reference: publication PMC5048913
